Data reported in patent US7749976B2, “Isolated PTPMT1 protein which mediates insulin production and uses thereof” (The Regents of the University of California, priority 2005, dated 2010).
Marks after values point to notes of the source that are not given here.

T1: PLIP (Mus musculus, UniProt Q66GT5)
T1 construct: ligating a PCR product encoding full-length PLIP; made in house; host or cells: Escherichia coli BL21 (DE3) CodonPlus RIL
T1 sequence (Q66GT5 32-193): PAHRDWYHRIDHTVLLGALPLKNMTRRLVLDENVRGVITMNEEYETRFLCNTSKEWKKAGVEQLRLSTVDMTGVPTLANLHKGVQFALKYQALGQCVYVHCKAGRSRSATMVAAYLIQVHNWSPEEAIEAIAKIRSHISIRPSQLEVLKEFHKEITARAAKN

T2: MTM1 (Homo sapiens, UniProt Q13496)
T2 sequence (Q13496 1-603): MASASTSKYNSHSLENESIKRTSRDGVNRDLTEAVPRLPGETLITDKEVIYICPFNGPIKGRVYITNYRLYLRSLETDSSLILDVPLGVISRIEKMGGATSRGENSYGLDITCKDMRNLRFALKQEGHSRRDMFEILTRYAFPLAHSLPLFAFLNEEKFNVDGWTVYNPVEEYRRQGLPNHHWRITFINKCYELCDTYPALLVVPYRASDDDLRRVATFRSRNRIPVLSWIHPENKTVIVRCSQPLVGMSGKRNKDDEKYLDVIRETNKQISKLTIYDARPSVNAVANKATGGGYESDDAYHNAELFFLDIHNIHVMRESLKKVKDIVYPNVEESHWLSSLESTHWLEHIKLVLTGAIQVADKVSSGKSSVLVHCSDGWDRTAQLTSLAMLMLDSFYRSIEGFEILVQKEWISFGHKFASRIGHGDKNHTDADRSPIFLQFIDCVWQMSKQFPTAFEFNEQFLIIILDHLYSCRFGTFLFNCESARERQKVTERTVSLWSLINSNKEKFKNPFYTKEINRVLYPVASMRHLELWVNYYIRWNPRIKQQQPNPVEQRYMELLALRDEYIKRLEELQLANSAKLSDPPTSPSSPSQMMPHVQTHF

T3: TC-PTP (Homo sapiens, UniProt P17706)
T3 sequence (P17706 1-415): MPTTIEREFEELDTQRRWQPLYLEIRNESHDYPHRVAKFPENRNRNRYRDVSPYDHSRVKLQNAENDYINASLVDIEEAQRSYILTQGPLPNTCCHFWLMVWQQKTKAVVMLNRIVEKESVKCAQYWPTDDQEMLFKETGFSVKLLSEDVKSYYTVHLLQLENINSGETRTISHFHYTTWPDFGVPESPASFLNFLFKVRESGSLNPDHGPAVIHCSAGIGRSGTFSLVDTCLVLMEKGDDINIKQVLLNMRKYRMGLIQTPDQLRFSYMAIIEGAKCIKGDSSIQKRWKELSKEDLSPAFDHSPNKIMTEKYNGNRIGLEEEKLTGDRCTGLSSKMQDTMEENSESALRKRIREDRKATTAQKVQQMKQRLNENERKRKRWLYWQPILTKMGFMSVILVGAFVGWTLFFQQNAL


What was measured:
PLIP = molecular target: T1, PLIP; experiment: Phosphatase activity of various PTPs (malachite green / radiolabeled protein substrates); type: biochemical, murine; details: for Phosphatase activity, PLIP: mole of phosphate released/min/mol of enzyme, pH 5.5, triplicate, this study
Method: Recombinant murine PLIP was expressed as a fusion protein with N-terminal GST and 6-His tags in Escherichia coli BL21 (DE3) CodonPlus RIL cells (Stratagene). The expression construct was assembled by ligating a PCR product encoding full-length PLIP into the 5′-EcoR1 and 3′-Xho1 sites of a modified pET41 vector (pSJ6), kindly provided by Zhaohui Xu (University of Michigan). […] Cultures were then chilled on ice for 20 min, supplied with fresh antibiotics, induced with IPTG to a final concentration of 0.4 mM, and allowed to grow overnight @ 25° C., as previously described (Taylor and Dixon, 2003). All subsequent steps were performed @ 4° C. The cultures were pelleted by spinning @ 6000 rpm for 10 min in a Sorvall GSA rotor, resuspended in 30 ml of buffer (20 mM Imidazole, 50 mM Tris pH 7.4, 300 mM NaCl) with Complete protease inhibitors (Roche), and lysed via French Press. Insoluble material was removed by centrifugation @ 50,000 rpm for 30 min. The fusion protein was purified from the soluble supernatant first over Ni^2+ agarose beads, and then by successive separation on Superdex 75 and 200 gel filtration columns (Amersham). The resulting protein was concentrated, flash frozen in liquid nitrogen, and stored @−80° C. in 25% glycerol, 2 mM EDTA, and 2 mM DTT until use.
Di-C8 phosphoinosites (Echelon) and Dioleoyl-phosphatidylserine (Sigma) were dried together in a Speed Vac and resuspended via sonication in 18 μl assay buffer (100 mM sodium acetate, 50 mM bis-Tris, 50 mM Tris (pH 5.5), 10 mM DTT) to final concentrations of 50 μM and 500 μM, respectively. After prewarming at 37° C. for 5 min, reactions were initiated by the addition of 20 to 2000 ng of GST-PLIP diluted in assay buffer containing 1.0 mg/ml gelatin. Reactions were quenched after 5-30 min by the addition of 20 μl 0.1 M N-ethylmaleimide, and spun at 18,000×g for 10 min to sediment the lipid aggregates. […] Samples were allowed to sit for 40 minutes for color development before measuring absorbance at 620 nm. Inorganic phosphate release was quantitated by comparison to a standard curve of KH2PO4 in dH2O. […]

MTM1 = molecular target: T2, MTM1; details: Ref. 32; cited from earlier work
TC-PTP = molecular target: T3, TC-PTP; experiment: Phosphatase activity of various PTPs (malachite green / radiolabeled protein substrates); type: biochemical; details: mole of phosphate released/min/mol of enzyme; triplicate; this study
Method: (§1) Di-C8 phosphoinosites (Echelon) and Dioleoyl-phosphatidylserine (Sigma) were dried together in a Speed Vac and resuspended via sonication in 18 μl assay buffer (100 mM sodium acetate, 50 mM bis-Tris, 50 mM Tris (pH 5.5), 10 mM DTT) to final concentrations of 50 μM and 500 μM, respectively. After prewarming at 37° C. for 5 min, reactions were initiated by the addition of 20 to 2000 ng of GST-PLIP diluted in assay buffer containing 1.0 mg/ml gelatin. Reactions were quenched after 5-30 min by the addition of 20 μl 0.1 M N-ethylmaleimide, and spun at 18,000×g for 10 min to sediment the lipid aggregates. Twenty-five microliters of the supernatant was added to 50 μl of malachite green reagent and vortexed. Samples were allowed to sit for 40 minutes for color development before measuring absorbance at 620 nm. Inorganic phosphate release was quantitated by comparison to a standard curve of KH2PO4 in dH2O.
(§2) Assays using radiolabeled protein substrates or pNPP were carried in assay buffer containing 50 mM sodium acetate, 25 mM bis-Tris, 25 mM Tris, and 2 mM DTT at pH 5.5 (GST-PLIP), 6.0 (VHR), or 7.0 (TC-PTP), at 30° C. Radiolabeled proteins and pNPP were prepared and assayed as previously reported (Taylor et al., 1997).
(§3) Due to the only recent emergence of PI(5)P as a known signaling molecule, few PTP's have been tested for activity against this substrate. To ensure that activity against PI(5)P is not a common feature of PTP's, membrane-bound di-C8 PI(5)P was assayed using a known tyrosine-specific PTP (TC-PTP) and a known dual-specific PTP (VHR) (Ishibashi et al., 1992; Zhao et al., 1992; Ruzzene et al., 1993; Zhou et al., 1994; Denu et al., 1995).

VHR = VHR (Homo sapiens, UniProt P51452); experiment: as above; type: biochemical; details: mole of phosphate released/min/mol of enzyme; triplicate; this study
Sequence of VHR (P51452 whole entry, species assumed): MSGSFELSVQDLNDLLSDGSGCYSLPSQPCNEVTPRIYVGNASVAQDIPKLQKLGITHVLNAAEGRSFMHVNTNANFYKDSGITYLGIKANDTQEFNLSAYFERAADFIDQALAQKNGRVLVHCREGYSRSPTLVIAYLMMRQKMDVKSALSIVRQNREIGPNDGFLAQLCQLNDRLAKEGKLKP
Method: as §1, §2, §3

PTEN = PTEN (Homo sapiens, UniProt P60484); details: protein substrates; Ref. 43; cited from earlier work
Sequence of PTEN (P60484 whole entry, species assumed): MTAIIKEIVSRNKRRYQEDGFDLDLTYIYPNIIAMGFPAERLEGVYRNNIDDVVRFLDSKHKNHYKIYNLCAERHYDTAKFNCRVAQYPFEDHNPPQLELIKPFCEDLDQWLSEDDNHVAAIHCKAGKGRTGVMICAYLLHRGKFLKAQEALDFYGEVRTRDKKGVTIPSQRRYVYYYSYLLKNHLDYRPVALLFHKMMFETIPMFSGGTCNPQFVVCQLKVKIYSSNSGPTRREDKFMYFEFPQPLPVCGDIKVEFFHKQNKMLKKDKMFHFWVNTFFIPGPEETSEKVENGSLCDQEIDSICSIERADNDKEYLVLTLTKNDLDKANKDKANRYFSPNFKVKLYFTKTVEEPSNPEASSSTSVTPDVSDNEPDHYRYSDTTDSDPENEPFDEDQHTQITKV

| Molecule | PLIP activity, fold lower than against PI(5)P (PLIP; radiolabeled protein substrates) | Phosphatase activity, PLIP (PLIP) | Phosphatase activity, MTM1 (MTM1) | Phosphatase activity, TC-PTP (TC-PTP) | Phosphatase activity, VHR (VHR) | Phosphatase activity, PTEN (PTEN) |
| --- | --- | --- | --- | --- | --- | --- |
| myelin basic protein: radiolabeled myelin basic protein (protein, UniProt P02686 1-304, looked up, radiolabeled) Myelin basic protein: MGNHAGKRELNAEKASTNSETNRGESEKKRNLGELSRTTSEDNEVFGEADANQNNGTSSQDTAVTDSKRTADPKNAWQDAHPADPGSRPHLIRLFSRDAPGREDNTFKDRPSESDELQTIQEDSAATSESLDVMASQKRPSQRHGSKYLATASTMDHARHGFLPRHRDTGILDSIGRFFGGDRGAPKRGSGKDSHHPARTAHYGSLPQKSHGRTQDENPVVHFFKNIVTPRTPPPSQGKGRGLSLSRFSWGAEGQRPGFGYGGRASDYKSAHKGFKGVDAQGTLSKIFKLGGRDSRSGSPMARR | approximately 1000 fold |  |  |  |  |  |
| MyBP Tyr(P): radiolabeled myelin basic protein substrate, tyrosine phosphorylated (protein, UniProt P02686 1-304, looked up, radiolabeled, tyrosine-phosphorylated) Myelin basic protein: MGNHAGKRELNAEKASTNSETNRGESEKKRNLGELSRTTSEDNEVFGEADANQNNGTSSQDTAVTDSKRTADPKNAWQDAHPADPGSRPHLIRLFSRDAPGREDNTFKDRPSESDELQTIQEDSAATSESLDVMASQKRPSQRHGSKYLATASTMDHARHGFLPRHRDTGILDSIGRFFGGDRGAPKRGSGKDSHHPARTAHYGSLPQKSHGRTQDENPVVHFFKNIVTPRTPPPSQGKGRGLSLSRFSWGAEGQRPGFGYGGRASDYKSAHKGFKGVDAQGTLSKIFKLGGRDSRSGSPMARR |  | 0.1^b mol/(min mol) | ~0.0^d mol/(min mol) | 195^b mol/(min mol) | 0.5^b mol/(min mol) | ~0.0^c mol/(min mol) |
| MyBP Ser(P)/Tyr(P): radiolabeled myelin basic protein substrate (protein, UniProt P02686 1-304, looked up, radiolabeled, Ser/Tyr-phosphorylated, radiolabeled myelin basic protein substrate) Myelin basic protein: MGNHAGKRELNAEKASTNSETNRGESEKKRNLGELSRTTSEDNEVFGEADANQNNGTSSQDTAVTDSKRTADPKNAWQDAHPADPGSRPHLIRLFSRDAPGREDNTFKDRPSESDELQTIQEDSAATSESLDVMASQKRPSQRHGSKYLATASTMDHARHGFLPRHRDTGILDSIGRFFGGDRGAPKRGSGKDSHHPARTAHYGSLPQKSHGRTQDENPVVHFFKNIVTPRTPPPSQGKGRGLSLSRFSWGAEGQRPGFGYGGRASDYKSAHKGFKGVDAQGTLSKIFKLGGRDSRSGSPMARR |  | ~0.0^b mol/(min mol) | ~0.0^d mol/(min mol) | ~0.0^b mol/(min mol) | ~0.0^b mol/(min mol) | ~0.0^c mol/(min mol) |
